In the nanobody polyreactivity screen of Harvey et al. (2022):

Assay: yeast display, Sf9 membrane polyspecificity reagent, FACS + sequencing; frameworks hold sequencing errors
Method in brief: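 Nanobodies came from a synthetic yeast display library in Saccharomyces cerevisiae BJ5465, induced with galactose for 36–48 hours and stained for 1 hour at 4 °C with 10% biotinylated, detergent-solubilized Sf9 membrane reagent. Cells were enriched on streptavidin microbeads and then FACS-sorted, with low and high (top ~1%) gates set on anti-HA fluorescence for expression and streptavidin fluorescence for reagent binding. Each polyreactivity label reflects the gate a clone came from. Genes were amplified by colony PCR, sequenced by MiSeq 2 × 250 and filtered by CDR length.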

Sequence | polyreactivity (PSR sort gate)
QDQLVESAGGIVQAGGRLRLSCAASGTLYINVMGWYRQSPGKERELVAAISSNGARTYYADSVKGRFTISRDNAKNTVYLQMNSLKPEDTAVYYCDASFYFYSLYGYWGQGTQVTVSS | high polyreactivity
HVQLVESGGGLVQAGGSLRLSCAASVFILSPNTMGWYRQAPGKERELVAAISSDVSTYADSVKGRFTISRDNAKNTVYLQMNSLKPEDTAVYYCNADDFGYASYEYWGQGTQVTVSS | low polyreactivity
QVQLVESGGGLVQAGGSLRLSCAASGSTFAYNAMGWYRQAPGKERELVASITVSVGSTYYADSVKGRYTISRDNAKNTVYLQMNRLKPVDTAVYYCAARVTLRSSTYWVPRTGYYYWGQGTQVTVSS | low polyreactivity
QVQLVESGGGLVQAGGSLRLSCASSGLIFGANAMGWYRQAPVKARELVAVITSDGSTDYADSVKGRFIISRDNAKNTVYLQMNSLKPEDTAVYYCATTFYLIFGYTYSAYYYWGHGTQVTVSS | high polyreactivity
QVQLVESGGGLVQAGGSLRLSCAASGRIFAWNAMGWYRQAPGKERELVARIRVSGGRTYYADSVKGRFTISRDNAKNTVYLQMKSLKPDDTAVYYCNAYLRSGSMDYWGQGTQVTVSS | high polyreactivity
QVQLVESGGGLVQAGGSLRLTGAASGRIFRSYAMGWYRQAPGKERELVASISGSTTYYADSVKGRFTISRDNAKNTVYLQMNSLKPEDTAVYYCAVKYDAWGYGYRHFDYWGQGTQVTVSS | low polyreactivity
QVQLVESGGGLVQAGGSLRLSCAASGRTFVQYAMGWYRQAPGKERELVAAISDRGGNTYYADSVKGRFTISRDNAKNTVYLQMNSLKPEDTAVYYCAAKIALDNDYWGQGTQVTVSS | high polyreactivity
QVQLVESGGGLVQAGGSLRLSCAASGFTYYYYAMGWYRQAHGKERELVAAISTRDGNTYYADSVKGRFTISRDNAKNTVYLQMNSLKPEDTAVYYCAADYFRYYPYDYWGQGTLVTVSS | low polyreactivity
QVQLVESGGGLVQAGGSLRLSCADSGTIFALYAMGWYRQAPGKEREFVAAIRRGTSTKYADSVKGRFTISRDNAKNTVYLQMNSLKPEDTAVYYCNARYYYSSSISRWYDYWGQGTQVTVSS | high polyreactivity
QVQLVESGGGLVQAGGSLRLSCAASGFIFYQYAMGWYRQAPGKERELVAAISTRGGSTYYADSVKGRFTISRDNAKNTVYLQMNSLKPEDTAVYYCAATVNARRVTRRYYWGQGTQVTVSS | high polyreactivity
QVHLVESVGGLFQAGGSLRLSCAPSGYIYVANVKGWYRQAPGKERELVAAINRRTGITYYADSVKGRCTNSRDNAKNTVNLQMNSLKTEDTAVYYCAALAQSTTYTRPYDYWGQGTQVTVSS | low polyreactivity
QVQLVESGGGLVQAGGSLRLSCAASGRILPWYAMGWYRQAPWKERELVAGISSNGGSTYYADSVKGRFTSSRDNPKNTVYLQMNSLKTEDTAVYYCAARVWYWRHYPSDYWGQGTQVTVSS | high polyreactivity
QVQLVESGGGLVQAGGSLRLSCAASGITFIPNAMGWYRQAPGKERELVAAISISGGRTYYADSVKGRFTISRDNAKNTVYLQMNSLKPEVTAVYYCAVDSWSRVQGWLAHNYDYWGQGTQVTVSS | low polyreactivity
QVQLVESGGGLVQAGGSLRLSCAASGSTFVVNAMVWYRQAPGKERELVAAITQDGDGTYYADSVKGRFTISRDNAKNTVYLQMNSLKPEDTAVYYCAAYPFYGPYDEFDYWGQGTQVTVSS | low polyreactivity
QVQLVESGGGLVQAGGSLRLSCAASGSIFGGYAMGWYRQAPGKERELVAAISSGGSTYYADSVKGRFTISRDNAKNTVYLQMNSLKPEDTAVYYCATSTYAYRRNSYYYTRPRFGYWGQGTQVTVSS | high polyreactivity
QVQLVESGGGLVQAGGSLRLSCAASGSIFHYNTMGWYRQAPGKERELVAAITYSGGSTYYADSVKGRYTISRDNAKNPVYLQMNSLKPEDTAVYYCAVRGPGTSTYWYHEYEYWGQGTQVTVSS | high polyreactivity
QVQLVESGGGLVQAGGSLRLSCAASGRTFRYYTKGWYRQAPGKERELVAAITYSGGSTYYADSVKGRFTISRDNAMNTVYLQMNSLKPVDTAVYYCAAKASGNYYYYWGQGTQVTVSS | high polyreactivity
QVQLVESGGGLVQAGGSLRLSCAASGRIFYLNAMGWYRQAPGKERELVAVITGNAGSTYYADSVKGRFTISRDNAKNTVYLQMNSLKPEDTAVYYCNALRLVPWSDALYDYWGQGTQVTVSS | low polyreactivity
QVQLVESGGGLVQAGGSLRLSCAASGRTSLAYAMGWYRQAPGKERELVAGITSGGNTNYADSVKGRFTISCDNAKNTVYLQMNSLKPEDTAVYSCNKKKRWQWYSESVLDYLGFYSWGQGTQVTVSS | low polyreactivity
QVQLVESGGGLVQAVGSLRLSCAASGRIFGPNAMGWYRQAPGKERELVAAITGSGGSTYADSVKGRFTISRDNAKNTVYLQMNSLKPEDTAVYYCAKKTWYSYDWGQGTQVTVSS | high polyreactivity
QVQLVESGGGLVQAVGSLRLSCAASGLIFFYYSMGWYRPAPGKERELVAAIRTNYADSVKGRFTISRDNAKNTVYLQMNSLKREDTAAYYCAAESSQTPTSAFDYWGQGTQVTVSS | low polyreactivity
QVQLVESGGGLVQAGGSLRLSCAASGFTFTRNAMGWYRQAPGKERELVAASTWSGGSTYYADSVKGRFTISRDNAKNTVYLQMNSLKPEDTAVYDCAALYRSRYYAGDYWGQGTQVTVSS | high polyreactivity
QVQLVESGGGLVQAGGSLRLSCAASGIIFQQYAMGWYRQAPGKERELVAAITYSGDGTYYADSVKGRFTISRDNAKNTVYLQMNSLKPEDTAVYYCAAYPRDPYKEYDYWGQGTQVTVSS | low polyreactivity
QVQLVESGGGLVQAGGSLRLSCDASGRTFAYYAMGWYRQAPGKERELVAAISNGGSTYYADSVKGRFTISRDNAKNTVYLQMNRLKPEDTSVYYCNAYYSDLYDYWGQGTQVTVSS | low polyreactivity
QVQLVESGGGLVQAGGSLRLSCAASGRTFTRYAMGWYRQAPGPERELVAASRWSGTRTYYAVSVKGRITISRDNAKNTVDLQMNSLTPEDTAVYYCAARDRVYPDYGYWGQGTQVTVSS | high polyreactivity
QVQLVESGGGLVQAGGSLRLSCAASGSTFYIYAMGWYRQAPGKERELVATITRAGTTNYADSVKGRFTISRDNAMNTVYLQMNSLKPEETAVYYCAKRKFRWPYQGSYSYIPFGYCGQGTQVTVSS | high polyreactivity
QVQLVESGGGLVQAGGSLRLSCAASGSIFPYYAMGWYRQSPGKERELVASSNQSDGTTYYADSVKGRFTISRDNAKNTVYLQMNSLKPEDTAVYYCAADTTLQAFIRYRPIGSYDSWGQGTQVTVSS | low polyreactivity
QVQLVESGGGLVQAGGSLRLSCAASGFTFVPYAMGWYRQAPGKERELVAAISSTGGSTYYADSVKGRFTISRDNAKNTVYLQMNSLKPEDTAVYYCAAKITRRYYPGYLFDSWGQGTQVTVSS | high polyreactivity
QVQLVESGGGLVQAGGSLRLSCAASGRIFNQYGMGWYRQAPGKERELVAAIRSGDSTNYADSVKGRFTISRDNAKNTVYLQRNSLKPEDTAVYYSARDRPGDYAGYDYWGQGTQVTVSS | low polyreactivity
QVKLVESGGGLVQAGGSLRLSCADSGFTFSSNGMCWYRPAPGKETELVAAITRRGGSTYYADSVKGRFTISRDNAKNTVYLQMNSLKPEDTAVYYCAKQLWDPKYDYWGQGTQVTVSS | high polyreactivity
